Source: paper PMC6778109

Biological target: Edc3 IDR
Test: methyl TROSY NMR titration

Substance: Edc3 YjeF_N domain (from UniProt O94752) V253I
- other: chemical shift perturbation Δδ of the introduced methyl group (+ 4x Edc3 IDR): 0.391 ppm

Substance: Edc3 YjeF_N domain (from UniProt O94752) Q447I
- other: chemical shift perturbation Δδ of the introduced methyl group (+ 6x Edc3 IDR): 0.078 ppm

Substance: Edc3 YjeF_N domain (from UniProt O94752) K392M
- other: chemical shift perturbation Δδ of the introduced methyl group (+ 6x Edc3 IDR): 0.087 ppm

Substance: Edc3 YjeF_N domain (from UniProt O94752) W393M
- other: chemical shift perturbation Δδ of the introduced methyl group (+ 4x Edc3 IDR): 0.104 ppm
